Values belong to the binder of their own block, whether it stands above or below them.
Key:
Experiment in all cases: holdup assay
Parameters in all cases: key: below the threshold = too weak to quantify, mostly under pKd 3.1 to 4
[1] = biological target: T1, APBA1_1, Q02410
T1 sequence (Q02410 651-752, limits assumed, looked up): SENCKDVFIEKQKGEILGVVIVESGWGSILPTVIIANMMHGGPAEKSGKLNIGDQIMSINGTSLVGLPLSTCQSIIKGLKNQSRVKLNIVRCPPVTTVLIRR

[2] = biological target: T2, ARHGAP21, Q5T5U3
T2 sequence (Q5T5U3 45-169, limits assumed, looked up): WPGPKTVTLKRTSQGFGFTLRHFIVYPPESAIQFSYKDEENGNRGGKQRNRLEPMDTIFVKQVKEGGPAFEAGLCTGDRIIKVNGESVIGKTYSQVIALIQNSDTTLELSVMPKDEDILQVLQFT

[3] = biological target: ARHGEF12, Q9NZN5-2
ARHGEF12, Q9NZN5-2, sequence (Q9NZN5 other isoform, or with tags, fused parts or gaps): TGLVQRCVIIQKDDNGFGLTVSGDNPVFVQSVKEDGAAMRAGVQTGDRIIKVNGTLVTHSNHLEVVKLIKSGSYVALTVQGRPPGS

[4] = biological target: T3, DFNB31_1, Q9P202
T3 sequence (Q9P202 135-233, limits assumed, looked up): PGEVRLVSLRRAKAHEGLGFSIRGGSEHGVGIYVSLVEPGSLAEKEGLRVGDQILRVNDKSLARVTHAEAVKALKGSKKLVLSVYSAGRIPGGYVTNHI

[5] = biological target: DLG1_1, Q12959
[6] = biological target: T4, DLG3_1, Q92796
T4 sequence (Q92796 125-227, limits assumed, looked up): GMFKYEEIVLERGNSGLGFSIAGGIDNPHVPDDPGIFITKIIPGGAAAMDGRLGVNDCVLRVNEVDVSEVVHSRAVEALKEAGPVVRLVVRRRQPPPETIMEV

[7] = biological target: T5, DLG3_3, Q92796
T5 sequence (Q92796 374-475, limits assumed, looked up): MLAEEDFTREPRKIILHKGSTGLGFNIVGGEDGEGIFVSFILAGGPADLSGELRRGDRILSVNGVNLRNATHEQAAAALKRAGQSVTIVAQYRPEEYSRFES

[8] = biological target: GORASP1, Q9BQQ3
GORASP1, Q9BQQ3, sequence (Q9BQQ3 1-208): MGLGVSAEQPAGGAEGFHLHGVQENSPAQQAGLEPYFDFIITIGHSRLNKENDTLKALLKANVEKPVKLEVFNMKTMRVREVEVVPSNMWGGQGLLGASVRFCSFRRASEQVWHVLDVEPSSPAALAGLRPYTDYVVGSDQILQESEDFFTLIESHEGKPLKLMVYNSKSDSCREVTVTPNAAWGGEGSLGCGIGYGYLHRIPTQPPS

[9] = biological target: GORASP2, Q9H8Y8
[10] = biological target: T6, HTRA3, P83110
T6 sequence (P83110 354-453, limits assumed, looked up): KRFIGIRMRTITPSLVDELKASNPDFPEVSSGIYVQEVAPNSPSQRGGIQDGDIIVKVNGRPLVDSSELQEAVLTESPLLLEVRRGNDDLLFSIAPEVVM

[11] = biological target: T7, HTRA4, P83105
T7 sequence (P83105 378-476, limits assumed, looked up): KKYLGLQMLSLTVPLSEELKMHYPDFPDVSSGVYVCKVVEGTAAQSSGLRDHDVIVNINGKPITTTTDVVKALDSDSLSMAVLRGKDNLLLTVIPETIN

[12] = biological target: LIMK2, P53671
LIMK2, P53671, sequence (P53671 143-248): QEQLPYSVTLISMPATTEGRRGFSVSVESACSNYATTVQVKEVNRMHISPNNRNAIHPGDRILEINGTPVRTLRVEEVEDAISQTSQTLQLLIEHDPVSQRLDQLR

[13] = biological target: LNX1_1, Q8TBB1
LNX1_1, Q8TBB1, sequence (Q8TBB1 261-371): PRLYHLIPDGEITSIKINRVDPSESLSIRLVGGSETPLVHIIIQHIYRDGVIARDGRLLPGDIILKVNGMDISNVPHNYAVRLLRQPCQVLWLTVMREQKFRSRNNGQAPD

[14] = biological target: LNX1_3, Q8TBB1
LNX1_3, Q8TBB1, sequence (Q8TBB1 500-596): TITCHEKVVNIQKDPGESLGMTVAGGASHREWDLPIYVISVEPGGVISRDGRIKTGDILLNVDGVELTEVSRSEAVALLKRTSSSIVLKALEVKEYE

[15] = biological target: MAGI1_1, Q96QZ7
MAGI1_1, Q96QZ7, sequence (Q96QZ7 1-106): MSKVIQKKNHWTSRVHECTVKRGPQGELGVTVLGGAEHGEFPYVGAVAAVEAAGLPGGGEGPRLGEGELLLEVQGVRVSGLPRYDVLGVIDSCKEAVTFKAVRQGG

[16] = biological target: MAGI2_6, Q86UL8
MAGI2_6, Q86UL8, sequence (Q86UL8 1141-1229): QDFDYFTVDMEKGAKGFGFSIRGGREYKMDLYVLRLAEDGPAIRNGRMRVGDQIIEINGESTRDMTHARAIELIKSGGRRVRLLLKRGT

[17] = biological target: T8, MPDZ_5, O75970
T8 sequence (O75970 695-796, limits assumed, looked up): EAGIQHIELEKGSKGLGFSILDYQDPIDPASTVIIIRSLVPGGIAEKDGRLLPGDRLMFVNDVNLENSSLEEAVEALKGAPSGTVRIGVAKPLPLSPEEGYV

[18] = biological target: T9, MPP6, Q9NZW5
T9 sequence (Q9NZW5 125-219, limits assumed, looked up): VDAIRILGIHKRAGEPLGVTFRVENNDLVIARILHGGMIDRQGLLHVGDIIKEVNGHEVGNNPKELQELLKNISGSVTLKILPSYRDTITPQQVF

[19] = biological target: T10, NHERF3_3, Q5T2W1
T10 sequence (Q5T2W1 238-333, limits assumed, looked up): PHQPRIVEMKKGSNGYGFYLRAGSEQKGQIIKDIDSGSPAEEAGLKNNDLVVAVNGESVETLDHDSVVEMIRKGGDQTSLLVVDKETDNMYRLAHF

[20] = biological target: T11, PCLO, Q9Y6V0
T11 sequence (Q9Y6V0 4491-4600, limits assumed, looked up): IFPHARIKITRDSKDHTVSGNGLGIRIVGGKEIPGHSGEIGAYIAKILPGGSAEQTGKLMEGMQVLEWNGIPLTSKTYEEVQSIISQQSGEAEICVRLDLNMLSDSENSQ

[21] = biological target: PDZRN4_1, Q6ZMN7
PDZRN4_1, Q6ZMN7, sequence (Q6ZMN7 213-318): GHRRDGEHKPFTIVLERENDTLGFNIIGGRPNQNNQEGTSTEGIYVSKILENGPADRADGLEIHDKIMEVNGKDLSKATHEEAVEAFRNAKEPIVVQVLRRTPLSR

[22] = biological target: PTPN3, P26045
PTPN3, P26045, sequence (P26045 505-587): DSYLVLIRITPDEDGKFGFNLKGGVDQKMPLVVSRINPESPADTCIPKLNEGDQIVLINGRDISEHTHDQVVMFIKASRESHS

[23] = biological target: T12, RHPN1, Q8TCX5
T12 sequence (Q8TCX5 508-602, limits assumed, looked up): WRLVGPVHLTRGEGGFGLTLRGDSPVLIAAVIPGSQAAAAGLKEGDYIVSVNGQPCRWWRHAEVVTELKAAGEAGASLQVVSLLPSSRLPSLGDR

[24] = biological target: T13, TJP3_3, O95049
T13 sequence (O95049 375-456, limits assumed, looked up): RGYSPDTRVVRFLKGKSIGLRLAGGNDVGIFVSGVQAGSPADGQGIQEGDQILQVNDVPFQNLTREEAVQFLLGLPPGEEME

[25] = plain residues with an end cap or a label only (N-terminal biotin on a linker: ado-ado)
[26] = plain residues with an end cap or a label only (N-terminal biotin on a linker: ahx)

pKd [1, 25]: below the threshold
pKd [2, 25]: below the threshold
pKd [3, 25]: 4.51
pKd [4, 25]: below the threshold
pKd [5, 25]: below the threshold
pKd [6, 25]: below the threshold
pKd [7, 25]: below the threshold
pKd [8, 25]: 4.06
pKd [9, 25]: 3.8
pKd [10, 25]: below the threshold
pKd [11, 25]: below the threshold
pKd [12, 25]: below the threshold
pKd [13, 25]: below the threshold
pKd [14, 25]: below the threshold
pKd [15, 25]: below the threshold
pKd [16, 25]: below the threshold
pKd [17, 25]: below the threshold
pKd [18, 25]: below the threshold
pKd [19, 25]: 3.77
pKd [20, 25]: below the threshold
pKd [21, 25]: below the threshold
pKd [22, 25]: 3.8
pKd [23, 25]: below the threshold
pKd [24, 25]: below the threshold
B1: OR8G1, Q15617 (peptide)
chain: KKMLQRRTLL

pKd [1, 25]: below the threshold
pKd [2, 25]: below the threshold
pKd [3, 25]: 3.67
pKd [4, 25]: 4.68
pKd [5, 25]: 3.58
pKd [6, 25]: below the threshold
pKd [7, 25]: below the threshold
pKd [8, 25]: below the threshold
pKd [9, 25]: below the threshold
pKd [10, 25]: below the threshold
pKd [11, 25]: below the threshold
pKd [12, 25]: below the threshold
pKd [13, 25]: below the threshold
pKd [14, 25]: below the threshold
pKd [15, 25]: below the threshold
pKd [16, 25]: 3.5
pKd [17, 25]: below the threshold
pKd [18, 25]: 3.52
pKd [19, 25]: below the threshold
pKd [20, 25]: below the threshold
pKd [21, 25]: below the threshold
pKd [22, 25]: 4.97
pKd [23, 25]: 4.57
pKd [24, 25]: below the threshold
B2: SLC16A7, O60669 (peptide)
chain: SVTSERETNI

pKd [1, 26]: below the threshold
pKd [2, 26]: 3.64
pKd [3, 26]: 3.65
pKd [4, 26]: 3.47
pKd [5, 26]: below the threshold
pKd [6, 26]: below the threshold
pKd [7, 26]: below the threshold
pKd [8, 26]: below the threshold
pKd [9, 26]: below the threshold
pKd [10, 26]: below the threshold
pKd [11, 26]: below the threshold
pKd [12, 26]: below the threshold
pKd [13, 26]: below the threshold
pKd [14, 26]: below the threshold
pKd [15, 26]: below the threshold
pKd [16, 26]: below the threshold
pKd [17, 26]: below the threshold
pKd [18, 26]: below the threshold
pKd [19, 26]: below the threshold
pKd [20, 26]: below the threshold
pKd [21, 26]: below the threshold
pKd [22, 26]: 4.45
pKd [23, 26]: 4.38
pKd [24, 26]: below the threshold
B3: ACE2, Q9BYF1 (peptide)
chain: QNTDDVQTSF

pKd [1, 25]: below the threshold
pKd [2, 25]: below the threshold
pKd [3, 25]: below the threshold
pKd [4, 25]: below the threshold
pKd [5, 25]: below the threshold
pKd [6, 25]: below the threshold
pKd [7, 25]: below the threshold
pKd [8, 25]: below the threshold
pKd [9, 25]: below the threshold
pKd [10, 25]: below the threshold
pKd [11, 25]: 3.8
pKd [12, 25]: below the threshold
pKd [13, 25]: below the threshold
pKd [14, 25]: below the threshold
pKd [15, 25]: below the threshold
pKd [16, 25]: 3.57
pKd [17, 25]: below the threshold
pKd [18, 25]: 3.59
pKd [19, 25]: below the threshold
pKd [20, 25]: below the threshold
pKd [21, 25]: below the threshold
pKd [22, 25]: 4.06
pKd [23, 25]: below the threshold
pKd [24, 25]: below the threshold
B4: MKNK1, Q9BUB5 (peptide)
chain: GEDRSPPTAL

pKd [1, 25]: below the threshold
pKd [2, 25]: below the threshold
pKd [3, 25]: 3.63
pKd [4, 25]: below the threshold
pKd [5, 25]: below the threshold
pKd [6, 25]: below the threshold
pKd [7, 25]: below the threshold
pKd [8, 25]: below the threshold
pKd [9, 25]: below the threshold
pKd [10, 25]: below the threshold
pKd [11, 25]: 3.69
pKd [12, 25]: below the threshold
pKd [13, 25]: below the threshold
pKd [14, 25]: below the threshold
pKd [15, 25]: below the threshold
pKd [16, 25]: 4.24
pKd [17, 25]: below the threshold
pKd [18, 25]: below the threshold
pKd [19, 25]: below the threshold
pKd [20, 25]: below the threshold
pKd [21, 25]: below the threshold
pKd [22, 25]: 4.21
pKd [23, 25]: below the threshold
pKd [24, 25]: below the threshold
B5: MYOT, Q9UBF9 (peptide)
chain: QSGLYESEEL

pKd [1, 25]: below the threshold
pKd [2, 25]: 4.02
pKd [3, 25]: below the threshold
pKd [4, 25]: below the threshold
pKd [5, 25]: below the threshold
pKd [6, 25]: below the threshold
pKd [7, 25]: below the threshold
pKd [8, 25]: 3.89
pKd [9, 25]: 3.66
pKd [10, 25]: 3.6
pKd [11, 25]: 3.96
pKd [12, 25]: below the threshold
pKd [13, 25]: below the threshold
pKd [14, 25]: below the threshold
pKd [15, 25]: below the threshold
pKd [16, 25]: below the threshold
pKd [17, 25]: below the threshold
pKd [18, 25]: 3.54
pKd [19, 25]: below the threshold
pKd [20, 25]: below the threshold
pKd [21, 25]: below the threshold
pKd [22, 25]: 4.22
pKd [23, 25]: below the threshold
pKd [24, 25]: below the threshold
B6: PTTG2, Q9NZH5 (peptide)
chain: LPAVCYDIDI
